T1: V5-tagged human IL-17RA, wild type (human, UniProt Q96F46 33-866, limits assumed)
T1 construct: Expressed in HeLa cells and immunoprecipitated from the lysate; also called V5-tagged IL-17RA; the wild-type receptor
T1 sequence (looked up): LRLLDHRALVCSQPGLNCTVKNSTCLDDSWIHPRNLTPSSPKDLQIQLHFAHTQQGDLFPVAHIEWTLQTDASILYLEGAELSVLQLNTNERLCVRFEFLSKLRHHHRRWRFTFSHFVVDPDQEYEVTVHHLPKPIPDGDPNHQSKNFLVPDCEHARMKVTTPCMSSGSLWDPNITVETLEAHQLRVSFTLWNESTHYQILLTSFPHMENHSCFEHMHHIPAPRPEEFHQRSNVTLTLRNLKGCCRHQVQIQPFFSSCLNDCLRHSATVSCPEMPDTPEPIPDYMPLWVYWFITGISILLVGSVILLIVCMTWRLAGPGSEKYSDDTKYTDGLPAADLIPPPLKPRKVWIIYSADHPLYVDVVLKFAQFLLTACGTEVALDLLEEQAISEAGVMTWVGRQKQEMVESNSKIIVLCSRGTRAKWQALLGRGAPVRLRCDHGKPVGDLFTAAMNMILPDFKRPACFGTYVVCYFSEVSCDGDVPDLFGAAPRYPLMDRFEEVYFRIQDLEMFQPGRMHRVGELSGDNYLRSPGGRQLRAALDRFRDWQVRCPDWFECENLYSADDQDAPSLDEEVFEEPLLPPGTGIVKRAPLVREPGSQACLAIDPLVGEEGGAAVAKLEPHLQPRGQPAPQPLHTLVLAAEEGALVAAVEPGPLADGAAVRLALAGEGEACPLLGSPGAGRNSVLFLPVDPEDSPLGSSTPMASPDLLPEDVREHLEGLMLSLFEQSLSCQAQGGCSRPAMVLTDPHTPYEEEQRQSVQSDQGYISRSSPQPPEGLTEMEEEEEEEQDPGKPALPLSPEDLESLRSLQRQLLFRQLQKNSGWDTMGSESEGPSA

T2: Act1 in IL-17RB-deficient MEFs reconstituted with Myc-tagged IL-17RB (mouse (cells are mouse embryonic …, UniProt Q8N7N6 1-555))
T2 construct: That the co-precipitated Act1 is the cells' own is read from the description of the experiment
T2 sequence (looked up): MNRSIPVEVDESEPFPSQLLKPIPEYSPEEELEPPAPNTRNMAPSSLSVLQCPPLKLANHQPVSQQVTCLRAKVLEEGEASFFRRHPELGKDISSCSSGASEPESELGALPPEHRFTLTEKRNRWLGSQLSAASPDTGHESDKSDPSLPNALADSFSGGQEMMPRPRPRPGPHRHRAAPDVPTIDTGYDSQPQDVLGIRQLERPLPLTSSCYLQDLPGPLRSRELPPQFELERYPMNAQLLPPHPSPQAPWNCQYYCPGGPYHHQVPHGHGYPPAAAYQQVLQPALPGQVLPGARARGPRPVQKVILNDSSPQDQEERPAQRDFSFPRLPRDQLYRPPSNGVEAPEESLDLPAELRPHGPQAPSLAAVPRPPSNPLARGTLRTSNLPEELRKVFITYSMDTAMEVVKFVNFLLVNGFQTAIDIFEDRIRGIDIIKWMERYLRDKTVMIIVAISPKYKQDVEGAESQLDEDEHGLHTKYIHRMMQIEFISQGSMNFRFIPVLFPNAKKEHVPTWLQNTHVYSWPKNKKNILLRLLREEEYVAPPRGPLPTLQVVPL


What was measured:
[1] = target: T1, V5-tagged human IL-17RA, wild type; assay: co-immunoprecipitation, as told back in Example 9
[2] = target: T2, Act1 in IL-17RB-deficient MEFs …; assay: co-immunoprecipitation in reconstituted IL-17RB-deficient MEFs (IP anti-Myc)

| binding result [1] | binding result [2] | Binder |
| --- | --- | --- |
| no binding | – | FLAG-tagged mouse Act1 point mutant H472D (other, UniProt Q8N7N6 1-555, looked up) MNRSIPVEVDESEPFPSQLLKPIPEYSPEEELEPPAPNTRNMAPSSLSVLQCPPLKLANHQPVSQQVTCLRAKVLEEGEASFFRRHPELGKDISSCSSGASEPESELGALPPEHRFTLTEKRNRWLGSQLSAASPDTGHESDKSDPSLPNALADSFSGGQEMMPRPRPRPGPHRHRAAPDVPTIDTGYDSQPQDVLGIRQLERPLPLTSSCYLQDLPGPLRSRELPPQFELERYPMNAQLLPPHPSPQAPWNCQYYCPGGPYHHQVPHGHGYPPAAAYQQVLQPALPGQVLPGARARGPRPVQKVILNDSSPQDQEERPAQRDFSFPRLPRDQLYRPPSNGVEAPEESLDLPAELRPHGPQAPSLAAVPRPPSNPLARGTLRTSNLPEELRKVFITYSMDTAMEVVKFVNFLLVNGFQTAIDIFEDRIRGIDIIKWMERYLRDKTVMIIVAISPKYKQDVEGAESQLDEDEHGLDTKYIHRMMQIEFISQGSMNFRFIPVLFPNAKKEHVPTWLQNTHVYSWPKNKKNILLRLLREEEYVAPPRGPLPTLQVVPL |
| – | no binding | Myc-tagged mouse IL-17RB point mutant L419D (receptor, UniProt Q9JIP3 18-499, looked up) REPTIQCGSETGPSPEWMVQHTLTPGDLRDLQVELVKTSVAAEEFSILMNISWILRADASIRLLKATKICVSGKNNMNSYSCVRCNYTEAFQSQTRPSGGKWTFSYVGFPVELSTLYLISAHNIPNANMNEDSPSLSVNFTSPGCLNHVMKYKKQCTEAGSLWDPDITACKKNEKMVEVNFTTNPLGNRYTILIQRDTTLGFSRVLENKLMRTSVAIPVTEESEGAVVQLTPYLHTCGNDCIRREGTVVLCSETSAPIPPDDNRRMLGGWLPLFLVLLVAVWVLAAGIYLTWRQGRSTKTSFPISTMLLPLIKVLVVYPSEICFHHTVCRFTDFLQNYCRSEVILEKWQKKKIAEMGPVQWLTTQKQAADKVVFLLPSDVPTLCDSACGHNEGSARENSQDDFPLAFNLFCSDFSSQTHLHKYLVVYLGGADLKGDYNALSVCPQYHLMKDATAFHTELLKATQSMSVKKRSQACHDSCSPL |
| – | no binding | Myc-tagged mouse IL-17RB point mutant L422D (receptor, UniProt Q9JIP3 18-499, looked up) REPTIQCGSETGPSPEWMVQHTLTPGDLRDLQVELVKTSVAAEEFSILMNISWILRADASIRLLKATKICVSGKNNMNSYSCVRCNYTEAFQSQTRPSGGKWTFSYVGFPVELSTLYLISAHNIPNANMNEDSPSLSVNFTSPGCLNHVMKYKKQCTEAGSLWDPDITACKKNEKMVEVNFTTNPLGNRYTILIQRDTTLGFSRVLENKLMRTSVAIPVTEESEGAVVQLTPYLHTCGNDCIRREGTVVLCSETSAPIPPDDNRRMLGGWLPLFLVLLVAVWVLAAGIYLTWRQGRSTKTSFPISTMLLPLIKVLVVYPSEICFHHTVCRFTDFLQNYCRSEVILEKWQKKKIAEMGPVQWLTTQKQAADKVVFLLPSDVPTLCDSACGHNEGSARENSQDLFPDAFNLFCSDFSSQTHLHKYLVVYLGGADLKGDYNALSVCPQYHLMKDATAFHTELLKATQSMSVKKRSQACHDSCSPL |
